From the supplement of paper PMC9732359
± gives the uncertainty stated by the source.

Assay: protein stability index of a GFP-peptide fusion (yeast GPS) (PSI 1-4); higher = more stable; sorted into four equal gates, so the index is relative within each strain
Method in brief: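 Tiled yeast protein peptides of 17 residues were each joined downstream of GFP, on plasmids that also express Cherry. The pooled library was maintained in yeast, and mid-log cultures in leucine-free medium were sorted into four equal gates on the GFP/Cherry ratio. Plasmids from every gate were amplified by PCR and sequenced on Illumina, with barcodes linking reads to strains. The protein stability index of a peptide is its gate-number-weighted read frequency summed over the gates.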

Sequence	protein stability index (doa10∆)	protein stability index (pdr5∆)	protein stability index (san1∆)	protein stability index (ubr1∆)
ANNDINSLLSNFNDIPP [YDL088C/ASM4]	2.56 ± 0.097	2.87 ± 0.18	2.67 ± 0.27	3.13 ± 0.14
FIVVPDLLKNAPLFKKN [SMD3]	2.07 ± 0.053	1.57 ± 0.042	1.66 ± 0.11	1.32 ± 0.035
PAELDLRGSLLSRKPSD [RPC82]	2.9 ± 0.13	3.38 ± 0.12	3.11 ± 0.099	3.19 ± 0.078
NLRKSRGMLGLLEPPAK [RPO31]	1.61 ± 0.22	1.18 ± 0.21	–	–
IVQAKEPNLAAQQDSTN [ECM29]	2.51 ± 0.11	2.88 ± 0.054	2.69 ± 0.1	2.75 ± 0.063
DLIADTITNSSSSSDII [YML103C/NUP188]	2.89 ± 0.077	2.46 ± 0.046	2.63 ± 0.04	2.56 ± 0.044
SMVYSNVGELIEKNVME [RRP4]	2.06 ± 0.052	2.66 ± 0.053	2.55 ± 0.056	2.03 ± 0.048
SKVGSADTGRDDTKETV [RPN11]	3.14 ± 0.13	3.36 ± 0.089	3.59 ± 0.068	3.04 ± 0.12
NISGEFFRNKLKYHDFL [RPL16B]	2.35 ± 0.063	2.18 ± 0.068	2.22 ± 0.067	1.79 ± 0.044
RLELPVDFQNDLKDILE [BRR2]	2.83 ± 0.14	3.09 ± 0.084	2.78 ± 0.061	2.81 ± 0.052
SKSKQSFTQGELNDLKW [YMR129W/POM152]	3.02 ± 0.13	2.81 ± 0.13	3.08 ± 0.11	2.75 ± 0.092
VAIAETDSWESFFVSVR [FAS1]	–	3.05 ± 0.3	–	–
LRNKIAGYTTHLMKRIQ [RPS17A]	2.44 ± 0.12	3.19 ± 0.13	2.31 ± 0.12	2.99 ± 0.076
RSINNLIQEHDSRKNRE [BRN1]	3.24 ± 0.065	3.37 ± 0.052	3.15 ± 0.043	3.38 ± 0.053
IVMEDHGVLQGTSQNYG [MED1]	3.11 ± 0.059	3.02 ± 0.067	3.13 ± 0.062	3.07 ± 0.049
RLLSALGPRGVSITPGK [SRP21]	2.97 ± 0.078	3.04 ± 0.074	3.29 ± 0.078	2.93 ± 0.054
TEPDKPAFSFNSSVGNK [YJL041W/NSP1]	3.14 ± 0.053	3.3 ± 0.04	3.09 ± 0.033	3.242 ± 0.029
RFEKAVKHVFGKTIVVK [SMC3]	2.76 ± 0.21	3.58 ± 0.2	–	3.5 ± 0.16
NKLTGKQIVFEIPSETH [RPS7A]	3 ± 0.09	2.95 ± 0.091	2.86 ± 0.068	2.78 ± 0.11
AVSTIASISLAIGYPTL [RPP0]	1.92 ± 0.055	2.12 ± 0.056	1.53 ± 0.1	2.15 ± 0.049
IFTCQIMNLITNEPCGA [RPN4]	2.07 ± 0.087	2.61 ± 0.18	2.36 ± 0.21	–
DDLQKFNGIENQSAYEW [ISW2]	3.2 ± 0.21	3.23 ± 0.21	3.29 ± 0.1	3.32 ± 0.14
KRIESLQKDLQRQKTYV [SMC1]	3.01 ± 0.16	3.2 ± 0.13	2.85 ± 0.21	2.9 ± 0.15
IDSFFLYVLPSFNIPRL [YMR129W/POM152]	1.77 ± 0.05	1.57 ± 0.038	1.64 ± 0.093	1.26 ± 0.031
SKIIVFPRDGKAPEAEQ [RPL13B]	3.15 ± 0.085	3.2 ± 0.08	3.18 ± 0.058	3.33 ± 0.052
RLTKQAFDWVLSNIEAQ [RPO21]	3.2 ± 0.12	2.93 ± 0.12	3.19 ± 0.091	2.8 ± 0.088
ILSQQFDKIIKIREDHI [SRB8]	2.62 ± 0.066	3.05 ± 0.07	3.04 ± 0.052	2.84 ± 0.054

Sequence	protein stability index (doa10∆)	protein stability index (pdr5∆)	protein stability index (san1∆)	protein stability index (ubr1∆)
LTIVTCKQFPKLSCIQL [SRB8]	1.99 ± 0.07	1.86 ± 0.058	1.46 ± 0.05	1.6 ± 0.03
RPFGVALLIAGHDADDG [PUP2]	1.66 ± 0.16	2.66 ± 0.21	–	2.6 ± 0.14
VQEMALGGPITKESQPT [FAS2]	2.78 ± 0.099	2.72 ± 0.078	2.87 ± 0.065	3.01 ± 0.05
LMNGVKPFKSFLKKNII [FAS1]	–	–	3.36 ± 0.16	3.27 ± 0.087
FNGYNPEKKEMIQEVIV [FAS2]	3.39 ± 0.086	3.46 ± 0.1	3.4 ± 0.08	3.4 ± 0.11
IYDFITLFSSIEPQVIN [ECM29]	1.61 ± 0.07	2 ± 0.061	1.72 ± 0.18	2.08 ± 0.039
TEELSITGEKLDTQLND [SMC1]	1.86 ± 0.068	2.41 ± 0.083	2.29 ± 0.12	1.36 ± 0.034
LECQLFPQGLNIVMDSK [SSN8]	1.74 ± 0.2	–	–	2.46 ± 0.19
SEEPTDFGFDLDIEKEA [MCD1]	2.77 ± 0.25	–	–	3.24 ± 0.14
ESGIKPYFEQKIQETEL [RPT6]	2.93 ± 0.13	3.24 ± 0.14	2.64 ± 0.061	3.23 ± 0.094
LRVDEVQGKNLLTNFHG [RPS1A]	3.29 ± 0.067	3.42 ± 0.055	3.3 ± 0.047	3.26 ± 0.041
NGERKFLKEKDTVAELQ [FAS2]	–	3.38 ± 0.23	3.11 ± 0.24	3.02 ± 0.076
NYNHLLPTRYTLDVEAF [RPL27A]	1.45 ± 0.045	1.61 ± 0.047	1.57 ± 0.087	1.52 ± 0.032
VDENETVLESLGRLNKL [LIN1]	2.79 ± 0.075	3.03 ± 0.073	2.88 ± 0.069	3.03 ± 0.053
NASGNKRSGVIETVDDK [ITC1]	2.55 ± 0.09	2.58 ± 0.097	2.27 ± 0.12	2.45 ± 0.052
TQEEVELPLEDFKAKYC [RPB5]	3.33 ± 0.11	3.25 ± 0.11	3.58 ± 0.11	3.28 ± 0.071
DKKVTLITSEMFDAFVS [SIN4]	1.56 ± 0.059	1.46 ± 0.049	1.36 ± 0.098	1.28 ± 0.042
ENPDLSTKKKILGIHTS [RPT2]	2.8 ± 0.14	3.02 ± 0.24	2.98 ± 0.087	2.9 ± 0.15
RLTFKPWVVYLQILAML [YMR129W/POM152]	1.23 ± 0.07	1.22 ± 0.06	1.1 ± 0.11	1.05 ± 0.049
SKIFRFQNSKSASLFKQ [RPL24A]	2.63 ± 0.097	3.04 ± 0.085	2.54 ± 0.096	2.1 ± 0.073
PSGAKKVISSDARGVIG [RPL2A]	2.88 ± 0.072	3.13 ± 0.066	2.9 ± 0.076	3.04 ± 0.077
ELDQFWQEYSSVFKGGM [SRP14]	2.68 ± 0.073	2.66 ± 0.079	2.86 ± 0.098	3.13 ± 0.081
AAVIMRCKIYFFYLRIS [PCI8]	1.33 ± 0.067	1.35 ± 0.06	1.15 ± 0.11	1.09 ± 0.088
NIGETAGVVQDIGSDPT [RPB9]	2.77 ± 0.089	3.25 ± 0.085	2.72 ± 0.11	2.92 ± 0.056
SSAKRSKNTAVSKVQKR [SRP72]	2.25 ± 0.11	2.77 ± 0.11	2.09 ± 0.11	2.32 ± 0.069
GDPALVYKFMSLAKSSA [ECM29]	3.22 ± 0.11	2.77 ± 0.08	2.54 ± 0.089	3.09 ± 0.054
